Experiments:
[1] = molecular target: mouse IgM B cell receptor on primary murine B cells (mouse); assay: cell-based or functional assay
mouse IgM = mouse IgM (mouse, UniProt P01872 1-454); assay: IgM binding ELISA, mIgM coated on plate
Chain of mouse IgM (P01872 whole entry): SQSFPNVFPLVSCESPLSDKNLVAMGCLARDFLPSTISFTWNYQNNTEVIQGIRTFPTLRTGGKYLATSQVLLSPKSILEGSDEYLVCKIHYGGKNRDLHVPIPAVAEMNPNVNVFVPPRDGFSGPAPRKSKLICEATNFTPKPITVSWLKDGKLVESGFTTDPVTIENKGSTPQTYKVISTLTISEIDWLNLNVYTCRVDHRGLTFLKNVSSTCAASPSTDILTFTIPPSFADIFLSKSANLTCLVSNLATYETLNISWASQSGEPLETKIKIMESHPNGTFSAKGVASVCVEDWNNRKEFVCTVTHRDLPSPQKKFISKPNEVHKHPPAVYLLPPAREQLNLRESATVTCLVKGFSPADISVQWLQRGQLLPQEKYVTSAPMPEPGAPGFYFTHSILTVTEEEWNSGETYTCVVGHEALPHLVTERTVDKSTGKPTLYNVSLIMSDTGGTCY

B1: DVD3756 (bispecific antibody, human IgG1, kappa)
heavy: not shown
light: NTVMTQSPTSMFISVGDRVTMNCKASQNVGSDVDWYQQKTGQSPKLLISGTSNRYTGVPDRFTGSGSGTDFTLTISNMQAEDLAVYYCLQYNYNPTFGAGTKLELKRGGSGGGGSGDVVMTQTPLSLPVSLGDQASISCRSSQSLVHSNGNTYLHWYLQKPGQSPKLLIYKVSNRFSGVPDRFSGSGSGTDFTLKISRVEAEDLGAYFCSQSTHVPYTFGGPTRLEIKRTVAAPSVFIFPPSDEQLKSGTASVVCLLNNFYPREAKVQWKVDNALQSGNSQESVTEQDSKDSTYSLSSTLTLSKADYEKHKVYACEVTHQGLSSPVTKSFNRGEC
notes: Four-chain DVD-Ig
^3H incorporation, AM14 TLR9-/- B cells [1]: 459
^3H incorporation, AM14 WT B cells [1]: 7790
EC50 (mouse IgM): 0.0331 µg/mL

B2: DVD3754 (bispecific antibody, human IgG1, kappa)
heavy: not shown
light: DVVMTQTPLSLPVSLGDQASISCRSSQSLVHSNGNTYLHWYLQKPGQSPKLLIYKVSNRFSGVPDRFSGSGSGTDFTLKISRVEAEDLGAYFCSQSTHVPYTFGGPTRLEIKRTVAAPSVFIFPPNTVMTQSPTSMFISVGDRVTMNCKASQNVGSDVDWYQQKTGQSPKLLISGTSNRYTGVPDRFTGSGSGTDFTLTISNMQAEDLAVYYCLQYNYNPTFGAGTKLELKRTVAAPSVFIFPPSDEQLKSGTASVVCLLNNFYPREAKVQWKVDNALQSGNSQESVTEQDSKDSTYSLSSTLTLSKADYEKHKVYACEVTHQGLSSPVTKSFNRGEC
notes: Four-chain DVD-Ig; also called IgM/DNA DVD3754
^3H incorporation, AM14 TLR9-/- B cells [1]: 1600
^3H incorporation, AM14 WT B cells [1]: 35200
EC50 (mouse IgM): 0.117 µg/mL

B3: DVD3759 (bispecific antibody, human IgG1, kappa)
heavy: not shown
light: NTVMTQSPTSMFISVGDRVTMNCKASQNVGSDVDWYQQKTGQSPKLLISGTSNRYTGVPDRFTGSGSGTDFTLTISNMQAEDLAVYYCLQYNYNPTFGAGTKLELKRTVAAPSVFIFPPDVVMTQTPLSLPVSLGDQASISCRSSQSLVHSNGNTYLHWYLQKPGQSPKLLIYKVSNRFSGVPDRFSGSGSGTDFTLKISRVEAEDLGAYFCSQSTHVPYTFGGPTRLEIKRTVAAPSVFIFPPSDEQLKSGTASVVCLLNNFYPREAKVQWKVDNALQSGNSQESVTEQDSKDSTYSLSSTLTLSKADYEKHKVYACEVTHQGLSSPVTKSFNRGEC
notes: Four-chain DVD-Ig
^3H incorporation, AM14 TLR9-/- B cells [1]: 970
^3H incorporation, AM14 WT B cells [1]: 18600
EC50 (mouse IgM): 0.0412 µg/mL

B4: DVD3755 (bispecific antibody, human IgG1, kappa)
heavy: not shown
light: DVVMTQTPLSLPVSLGDQASISCRSSQSLVHSNGNTYLHWYLQKPGQSPKLLIYKVSNRFSGVPDRFSGSGSGTDFTLKISRVEAEDLGAYFCSQSTHVPYTFGGPTRLEIKRTVAAPNTVMTQSPTSMFISVGDRVTMNCKASQNVGSDVDWYQQKTGQSPKLLISGTSNRYTGVPDRFTGSGSGTDFTLTISNMQAEDLAVYYCLQYNYNPTFGAGTKLELKRTVAAPSVFIFPPSDEQLKSGTASVVCLLNNFYPREAKVQWKVDNALQSGNSQESVTEQDSKDSTYSLSSTLTLSKADYEKHKVYACEVTHQGLSSPVTKSFNRGEC
notes: Four-chain DVD-Ig
^3H incorporation, AM14 TLR9-/- B cells [1]: 402
^3H incorporation, AM14 WT B cells [1]: 8500
EC50 (mouse IgM): 0.0971 µg/mL

B5: DVD3752 (bispecific antibody, human IgG1, kappa)
heavy: not shown
light: DVVMTQTPLSLPVSLGDQASISCRSSQSLVHSNGNTYLHWYLQKPGQSPKLLIYKVSNRFSGVPDRFSGSGSGTDFTLKISRVEAEDLGAYFCSQSTHVPYTFGGPTRLEIKRTVAAPNTVMTQSPTSMFISVGDRVTMNCKASQNVGSDVDWYQQKTGQSPKLLISGTSNRYTGVPDRFTGSGSGTDFTLTISNMQAEDLAVYYCLQYNYNPTFGAGTKLELKRTVAAPSVFIFPPSDEQLKSGTASVVCLLNNFYPREAKVQWKVDNALQSGNSQESVTEQDSKDSTYSLSSTLTLSKADYEKHKVYACEVTHQGLSSPVTKSFNRGEC
notes: Four-chain DVD-Ig
^3H incorporation, AM14 TLR9-/- B cells [1]: 512
^3H incorporation, AM14 WT B cells [1]: 12700
EC50 (mouse IgM): 0.205 µg/mL

B6: DVD3751 (bispecific antibody, human IgG1, kappa)
heavy: not shown
light: DVVMTQTPLSLPVSLGDQASISCRSSQSLVHSNGNTYLHWYLQKPGQSPKLLIYKVSNRFSGVPDRFSGSGSGTDFTLKISRVEAEDLGAYFCSQSTHVPYTFGGPTRLEIKRGGSGGGGSGNTVMTQSPTSMFISVGDRVTMNCKASQNVGSDVDWYQQKTGQSPKLLISGTSNRYTGVPDRFTGSGSGTDFTLTISNMQAEDLAVYYCLQYNYNPTFGAGTKLELKRTVAAPSVFIFPPSDEQLKSGTASVVCLLNNFYPREAKVQWKVDNALQSGNSQESVTEQDSKDSTYSLSSTLTLSKADYEKHKVYACEVTHQGLSSPVTKSFNRGEC
notes: Four-chain DVD-Ig
^3H incorporation, AM14 TLR9-/- B cells [1]: 1180
^3H incorporation, AM14 WT B cells [1]: 35600
EC50 (mouse IgM): 0.191 µg/mL

B7: DVD3757 (bispecific antibody, human IgG1, kappa)
heavy: not shown
light: NTVMTQSPTSMFISVGDRVTMNCKASQNVGSDVDWYQQKTGQSPKLLISGTSNRYTGVPDRFTGSGSGTDFTLTISNMQAEDLAVYYCLQYNYNPTFGAGTKLELKRTVAAPDVVMTQTPLSLPVSLGDQASISCRSSQSLVHSNGNTYLHWYLQKPGQSPKLLIYKVSNRFSGVPDRFSGSGSGTDFTLKISRVEAEDLGAYFCSQSTHVPYTFGGPTRLEIKRTVAAPSVFIFPPSDEQLKSGTASVVCLLNNFYPREAKVQWKVDNALQSGNSQESVTEQDSKDSTYSLSSTLTLSKADYEKHKVYACEVTHQGLSSPVTKSFNRGEC
notes: Four-chain DVD-Ig
^3H incorporation, AM14 TLR9-/- B cells [1]: 382
^3H incorporation, AM14 WT B cells [1]: 4060
EC50 (mouse IgM): 0.0418 µg/mL

B8: DVD3760 (bispecific antibody, human IgG1, kappa)
heavy: not shown
light: NTVMTQSPTSMFISVGDRVTMNCKASQNVGSDVDWYQQKTGQSPKLLISGTSNRYTGVPDRFTGSGSGTDFTLTISNMQAEDLAVYYCLQYNYNPTFGAGTKLELKRTVAAPDVVMTQTPLSLPVSLGDQASISCRSSQSLVHSNGNTYLHWYLQKPGQSPKLLIYKVSNRFSGVPDRFSGSGSGTDFTLKISRVEAEDLGAYFCSQSTHVPYTFGGPTRLEIKRTVAAPSVFIFPPSDEQLKSGTASVVCLLNNFYPREAKVQWKVDNALQSGNSQESVTEQDSKDSTYSLSSTLTLSKADYEKHKVYACEVTHQGLSSPVTKSFNRGEC
notes: Four-chain DVD-Ig
^3H incorporation, AM14 TLR9-/- B cells [1]: 302
^3H incorporation, AM14 WT B cells [1]: 4340
EC50 (mouse IgM): 0.0353 µg/mL
